In the supplement of paper PMC10567573:

B1: VENTX (parent)
chain: VFQHHQYLSPLERKRLAREMQLSE

Variants of: B1
Experiment: protein stability index of a GFP-peptide fusion (GPS, HEK-293T) (PSI 1-6); higher = more stable
Details: c terminus: a fixed tail appended
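Also: lentivirally expressed fusions sorted by FACS into six bins by GFP to DsRed ratio, PSI derived from sequencing read proportions per bin multiplied by bin number.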

Row | Variant | protein stability index
1 | VFQHHQYLSPWERKRLAREMQLSE | 2.84
2 | VFQHHQYLSPYERKRLAREMQLSE | 2.66
3 | VFQHHQYLSPLARKRLAREMQLSE | 1.96
4 | VFQHHQYLSPLCRKRLAREMQLSE | 1.98
5 | VFQHHQYLSPLDRKRLAREMQLSE | 2.39
6 | VFQHHQYLSPLFRKRLAREMQLSE | 2.58
7 | VFQHHQYLSPLGRKRLAREMQLSE | 2.07
8 | VFQHHQYLSPLHRKRLAREMQLSE | 2.21
9 | VFQHHQYLSPLIRKRLAREMQLSE | 2.66
10 | VFQHHQYLSPLKRKRLAREMQLSE | 1.82
11 | VFQHHQYLSPLLRKRLAREMQLSE | 2.13
12 | VFQHHQYLSPLMRKRLAREMQLSE | 2.74
13 | VFQHHQYLSPLNRKRLAREMQLSE | 2.56
14 | VFQHHQYLSPLPRKRLAREMQLSE | 2.99
15 | VFQHHQYLSPLQRKRLAREMQLSE | 2.33
16 | VFQHHQYLSPLRRKRLAREMQLSE | 2.45
17 | VFQHHQYLSPLSRKRLAREMQLSE | 2.74
18 | VFQHHQYLSPLTRKRLAREMQLSE | 2.08
19 | VFQHHQYLSPLVRKRLAREMQLSE | 2.74
20 | VFQHHQYLSPLWRKRLAREMQLSE | 1.8
21 | VFQHHQYLSPLYRKRLAREMQLSE | 2.19
22 | VFQHHQYLSPLEAKRLAREMQLSE | 2.32
23 | VFQHHQYLSPLECKRLAREMQLSE | 2.45
24 | VFQHHQYLSPLEDKRLAREMQLSE | 2.56

Row | Variant | protein stability index
25 | VFQHHQYLSPLEEKRLAREMQLSE | 2.44
26 | VFQHHQYLSPLEFKRLAREMQLSE | 1.92
27 | VFQHHQYLSPLEGKRLAREMQLSE | 1.83
28 | VFQHHQYLSPLEHKRLAREMQLSE | 2.07
29 | VFQHHQYLSPLEIKRLAREMQLSE | 2.26
30 | VFQHHQYLSPLEKKRLAREMQLSE | 2.62
31 | VFQHHQYLSPLELKRLAREMQLSE | 2.66
32 | VFQHHQYLSPLEMKRLAREMQLSE | 2.43
33 | VFQHHQYLSPLENKRLAREMQLSE | 3.31
34 | VFQHHQYLSPLEPKRLAREMQLSE | 2.06
35 | VFQHHQYLSPLEQKRLAREMQLSE | 2.94
36 | VFQHHQYLSPLESKRLAREMQLSE | 2.44
37 | VFQHHQYLSPLETKRLAREMQLSE | 2.32
38 | VFQHHQYLSPLEVKRLAREMQLSE | 2.4
39 | VFQHHQYLSPLEWKRLAREMQLSE | 1.87
40 | VFQHHQYLSPLEYKRLAREMQLSE | 1.77
41 | VFQHHQYLSPLERARLAREMQLSE | 2.67
42 | VFQHHQYLSPLERCRLAREMQLSE | 2.98
43 | VFQHHQYLSPLERDRLAREMQLSE | 3.01
44 | VFQHHQYLSPLERERLAREMQLSE | 3.3
45 | VFQHHQYLSPLERFRLAREMQLSE | 1.75
46 | VFQHHQYLSPLERGRLAREMQLSE | 2.39
47 | VFQHHQYLSPLERHRLAREMQLSE | 1.97
48 | VFQHHQYLSPLERIRLAREMQLSE | 2.88

Row | Variant | protein stability index
49 | VFQHHQYLSPLERLRLAREMQLSE | 2.19
50 | VFQHHQYLSPLERMRLAREMQLSE | 3.11
51 | VFQHHQYLSPLERNRLAREMQLSE | 2.83
52 | VFQHHQYLSPLERPRLAREMQLSE | 2.4
53 | VFQHHQYLSPLERQRLAREMQLSE | 2.12
54 | VFQHHQYLSPLERRRLAREMQLSE | 2.67
55 | VFQHHQYLSPLERSRLAREMQLSE | 2.81
56 | VFQHHQYLSPLERTRLAREMQLSE | 2.58
57 | VFQHHQYLSPLERVRLAREMQLSE | 2.63
58 | VFQHHQYLSPLERWRLAREMQLSE | 1.81
59 | VFQHHQYLSPLERYRLAREMQLSE | 2.58
60 | VFQHHQYLSPLERKALAREMQLSE | 1.79
61 | VFQHHQYLSPLERKCLAREMQLSE | 1.99
62 | VFQHHQYLSPLERKDLAREMQLSE | 2.6
63 | VFQHHQYLSPLERKELAREMQLSE | 2.41
64 | VFQHHQYLSPLERKFLAREMQLSE | 1.72
65 | VFQHHQYLSPLERKGLAREMQLSE | 2.6
66 | VFQHHQYLSPLERKHLAREMQLSE | 2.54
67 | VFQHHQYLSPLERKILAREMQLSE | 2.09
68 | VFQHHQYLSPLERKKLAREMQLSE | 2.44
69 | VFQHHQYLSPLERKLLAREMQLSE | 2.02
70 | VFQHHQYLSPLERKMLAREMQLSE | 2.02
71 | VFQHHQYLSPLERKNLAREMQLSE | 2.85
72 | VFQHHQYLSPLERKPLAREMQLSE | 2.36

Row | Variant | protein stability index
73 | VFQHHQYLSPLERKQLAREMQLSE | 2.57
74 | VFQHHQYLSPLERKSLAREMQLSE | 1.97
75 | VFQHHQYLSPLERKTLAREMQLSE | 2.97
76 | VFQHHQYLSPLERKVLAREMQLSE | 1.92
77 | VFQHHQYLSPLERKWLAREMQLSE | 2.21
78 | VFQHHQYLSPLERKYLAREMQLSE | 2.04
79 | VFQHHQYLSPLERKRAAREMQLSE | 2
80 | VFQHHQYLSPLERKRCAREMQLSE | 2.62
81 | VFQHHQYLSPLERKRDAREMQLSE | 3.03
82 | VFQHHQYLSPLERKREAREMQLSE | 3.1
83 | VFQHHQYLSPLERKRFAREMQLSE | 2.28
84 | VFQHHQYLSPLERKRGAREMQLSE | 2.9
85 | VFQHHQYLSPLERKRHAREMQLSE | 2.82
86 | VFQHHQYLSPLERKRIAREMQLSE | 2.71
87 | VFQHHQYLSPLERKRKAREMQLSE | 2.52
88 | VFQHHQYLSPLERKRMAREMQLSE | 2.48
89 | VFQHHQYLSPLERKRNAREMQLSE | 2.92
90 | VFQHHQYLSPLERKRPAREMQLSE | 2.78
91 | VFQHHQYLSPLERKRQAREMQLSE | 2.7
92 | VFQHHQYLSPLERKRRAREMQLSE | 2.33
93 | VFQHHQYLSPLERKRSAREMQLSE | 2.8
94 | VFQHHQYLSPLERKRTAREMQLSE | 2.71
95 | VFQHHQYLSPLERKRVAREMQLSE | 2.75
96 | VFQHHQYLSPLERKRWAREMQLSE | 2.01

Row | Variant | protein stability index
97 | VFQHHQYLSPLERKRYAREMQLSE | 2.31
98 | VFQHHQYLSPLERKRLCREMQLSE | 1.84
99 | VFQHHQYLSPLERKRLDREMQLSE | 2.45
100 | VFQHHQYLSPLERKRLEREMQLSE | 2.93
101 | VFQHHQYLSPLERKRLFREMQLSE | 2.5
102 | VFQHHQYLSPLERKRLGREMQLSE | 2.69
103 | VFQHHQYLSPLERKRLHREMQLSE | 2.24
104 | VFQHHQYLSPLERKRLIREMQLSE | 2.36
105 | VFQHHQYLSPLERKRLKREMQLSE | 2.75
106 | VFQHHQYLSPLERKRLLREMQLSE | 2.79
107 | VFQHHQYLSPLERKRLMREMQLSE | 2.32
108 | VFQHHQYLSPLERKRLNREMQLSE | 2.38
109 | VFQHHQYLSPLERKRLPREMQLSE | 2.98
110 | VFQHHQYLSPLERKRLQREMQLSE | 2.59
111 | VFQHHQYLSPLERKRLRREMQLSE | 2.98
112 | VFQHHQYLSPLERKRLSREMQLSE | 3.1
113 | VFQHHQYLSPLERKRLTREMQLSE | 2.97
114 | VFQHHQYLSPLERKRLVREMQLSE | 2.14
115 | VFQHHQYLSPLERKRLWREMQLSE | 2.24
116 | VFQHHQYLSPLERKRLYREMQLSE | 3.02
117 | VFQHHQYLSPLERKRLAAEMQLSE | 2.28
118 | VFQHHQYLSPLERKRLACEMQLSE | 2.58
119 | VFQHHQYLSPLERKRLADEMQLSE | 2.77
120 | VFQHHQYLSPLERKRLAEEMQLSE | 2.8

Row | Variant | protein stability index
121 | VFQHHQYLSPLERKRLAFEMQLSE | 2.21
122 | VFQHHQYLSPLERKRLAGEMQLSE | 2.68
123 | VFQHHQYLSPLERKRLAHEMQLSE | 2.74
124 | VFQHHQYLSPLERKRLAIEMQLSE | 2.67
125 | VFQHHQYLSPLERKRLAKEMQLSE | 2.65
126 | VFQHHQYLSPLERKRLALEMQLSE | 2.33
127 | VFQHHQYLSPLERKRLAMEMQLSE | 2.21
128 | VFQHHQYLSPLERKRLANEMQLSE | 2.34
129 | VFQHHQYLSPLERKRLAPEMQLSE | 2.13
130 | VFQHHQYLSPLERKRLAQEMQLSE | 2.73
131 | VFQHHQYLSPLERKRLASEMQLSE | 3
132 | VFQHHQYLSPLERKRLATEMQLSE | 2.9
133 | VFQHHQYLSPLERKRLAVEMQLSE | 1.63
134 | VFQHHQYLSPLERKRLAWEMQLSE | 2.21
135 | VFQHHQYLSPLERKRLAYEMQLSE | 2
136 | VFQHHQYLSPLERKRLARAMQLSE | 2.08
137 | VFQHHQYLSPLERKRLARCMQLSE | 1.91
138 | VFQHHQYLSPLERKRLARDMQLSE | 2.67
139 | VFQHHQYLSPLERKRLARFMQLSE | 1.76
140 | VFQHHQYLSPLERKRLARGMQLSE | 2.06
141 | VFQHHQYLSPLERKRLARHMQLSE | 2.17
142 | VFQHHQYLSPLERKRLARIMQLSE | 1.86
143 | VFQHHQYLSPLERKRLARKMQLSE | 1.94
144 | VFQHHQYLSPLERKRLARLMQLSE | 1.81

Row | Variant | protein stability index
145 | VFQHHQYLSPLERKRLARMMQLSE | 1.78
146 | VFQHHQYLSPLERKRLARNMQLSE | 3.28
147 | VFQHHQYLSPLERKRLARPMQLSE | 2.44
148 | VFQHHQYLSPLERKRLARQMQLSE | 3.09
149 | VFQHHQYLSPLERKRLARRMQLSE | 2.38
150 | VFQHHQYLSPLERKRLARSMQLSE | 2.42
151 | VFQHHQYLSPLERKRLARTMQLSE | 2.16
152 | VFQHHQYLSPLERKRLARVMQLSE | 1.91
153 | VFQHHQYLSPLERKRLARWMQLSE | 1.91
154 | VFQHHQYLSPLERKRLARYMQLSE | 1.91
155 | VFQHHQYLSPLERKRLAREAQLSE | 2.8
156 | VFQHHQYLSPLERKRLARECQLSE | 3.43
157 | VFQHHQYLSPLERKRLAREDQLSE | 3.1
158 | VFQHHQYLSPLERKRLAREEQLSE | 3.28
159 | VFQHHQYLSPLERKRLAREFQLSE | 2.04
160 | VFQHHQYLSPLERKRLAREGQLSE | 2.71
161 | VFQHHQYLSPLERKRLAREHQLSE | 2.57
162 | VFQHHQYLSPLERKRLAREIQLSE | 2.39
163 | VFQHHQYLSPLERKRLAREKQLSE | 2.54
164 | VFQHHQYLSPLERKRLARELQLSE | 2.75
165 | VFQHHQYLSPLERKRLARENQLSE | 2.53
166 | VFQHHQYLSPLERKRLAREPQLSE | 2.78
167 | VFQHHQYLSPLERKRLAREQQLSE | 2.6
168 | VFQHHQYLSPLERKRLARERQLSE | 3.25

Row | Variant | protein stability index
169 | VFQHHQYLSPLERKRLARESQLSE | 2.62
170 | VFQHHQYLSPLERKRLARETQLSE | 2.36
171 | VFQHHQYLSPLERKRLAREVQLSE | 2.29
172 | VFQHHQYLSPLERKRLAREWQLSE | 1.67
173 | VFQHHQYLSPLERKRLAREYQLSE | 2.96
174 | VFQHHQYLSPLERKRLAREMALSE | 2.49
175 | VFQHHQYLSPLERKRLAREMCLSE | 2.5
176 | VFQHHQYLSPLERKRLAREMDLSE | 3.61
177 | VFQHHQYLSPLERKRLAREMELSE | 2.54
178 | VFQHHQYLSPLERKRLAREMFLSE | 1.98
179 | VFQHHQYLSPLERKRLAREMGLSE | 2.51
180 | VFQHHQYLSPLERKRLAREMHLSE | 2.68
181 | VFQHHQYLSPLERKRLAREMILSE | 2.32
182 | VFQHHQYLSPLERKRLAREMKLSE | 2.66
183 | VFQHHQYLSPLERKRLAREMLLSE | 2.59
184 | VFQHHQYLSPLERKRLAREMMLSE | 2.06
185 | VFQHHQYLSPLERKRLAREMNLSE | 2.29
186 | VFQHHQYLSPLERKRLAREMPLSE | 2.64
187 | VFQHHQYLSPLERKRLAREMRLSE | 2.99
188 | VFQHHQYLSPLERKRLAREMSLSE | 2.77
